Test [1] has as its target T1, SARS coronavirus non-structural protein 15 (Nsp15), wild-type, His-tagged (SARS coronavirus (SARS-CoV)), P0C6X7.
T1 chain: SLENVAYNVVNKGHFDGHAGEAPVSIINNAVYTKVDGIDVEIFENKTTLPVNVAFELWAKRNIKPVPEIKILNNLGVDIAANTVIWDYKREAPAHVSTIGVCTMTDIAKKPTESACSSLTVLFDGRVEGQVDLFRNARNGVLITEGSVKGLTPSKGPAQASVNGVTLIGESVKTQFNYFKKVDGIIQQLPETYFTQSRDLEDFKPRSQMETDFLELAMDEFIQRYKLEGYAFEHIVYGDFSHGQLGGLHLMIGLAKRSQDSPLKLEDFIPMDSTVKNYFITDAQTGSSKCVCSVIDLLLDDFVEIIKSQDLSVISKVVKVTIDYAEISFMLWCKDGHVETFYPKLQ
Briefly: SEC. To be noted: remark: other sources report otherwise.

Test [2] addresses T1, SARS coronavirus non-structural protein …. The experiment in a line: AUC. As to conditions: remark: other sources report otherwise.

B1: SARS coronavirus non-structural protein 15 (Nsp15), wild-type, His-tagged, P0C6X7 (enzyme)
chain: SLENVAYNVVNKGHFDGHAGEAPVSIINNAVYTKVDGIDVEIFENKTTLPVNVAFELWAKRNIKPVPEIKILNNLGVDIAANTVIWDYKREAPAHVSTIGVCTMTDIAKKPTESACSSLTVLFDGRVEGQVDLFRNARNGVLITEGSVKGLTPSKGPAQASVNGVTLIGESVKTQFNYFKKVDGIIQQLPETYFTQSRDLEDFKPRSQMETDFLELAMDEFIQRYKLEGYAFEHIVYGDFSHGQLGGLHLMIGLAKRSQDSPLKLEDFIPMDSTVKNYFITDAQTGSSKCVCSVIDLLLDDFVEIIKSQDLSVISKVVKVTIDYAEISFMLWCKDGHVETFYPKLQ
As usually defined, the stoichiometry N is the number of molecules, sites or subunits per partner or assembly. In test [1], B1 yielded a percent of total protein hexameric of 90% and a stoichiometry N of 6. This molecule also had a stoichiometry N in test [2] of 6.

For the origin of these results see paper PMC7094243.
